These results are taken from the domain aggregation screens of Martell et al. (2025).

The nature of this data set: soluble fraction after stress (log2 fold change); higher = more stays soluble; pooled small domains, quantitative proteomics. The following applies: stress: pH 4. In outline:
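With high-throughput quantitative proteomics, pooled custom libraries of small protein domains were measured after pH 4 stress. Each domain's soluble amount after the stress gives a fold change taken as aggregation propensity. Higher log2 values mean more of the domain stayed soluble.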

Consider “HMPPLVLRGVVMGADGARLAILAQGEAGAALGIGETWKEYTLRSVTDQSATLEHRSGTITLTR”, for which the “soluble fraction (log2)” value is -0.437.

Turning to “HMPPNPELGKKLLKLRKEFKMTQDDVANILGMSRTSFSKYENGIANPPLQVMRKLASIYNVGLEYLI”, the “soluble fraction (log2)” value is -0.0729. With “HMPQEMIEILATPNGWLRVRQGPGTNYPEITKVNSGEEFPLLEEKDSWFKIRIEEGQEGWISSQYAQKEE”, the “soluble fraction (log2)” value is -0.0319.

Regarding “HMPQGFEDLTEREREVLTLIAEGRTNQEIADALVISIKTVNRHRENIMAKLNLHSRVELVRYAIAQGLI”, the “soluble fraction (log2)” value was -0.723. For “HMPQNLQDQLFELILSRYPRRADAVEDLANILHLGKDPVYRRLRGDTFLSPLEISTLALHFRISLDALIV”, the “soluble fraction (log2)” value was -1.51. Consider “HMPQPEIEIAAVVPYSAGALLSRIHDDGELLAPVEYRGEGVFVHARVPADIEAAMRRGGMLSPAET”, for which the “soluble fraction (log2)” value was -0.164. As to “HMPQQVFKREDLQKWGLTGQADSRKRREKLGQLLGIGYGNGKQLIHRLNMFQVDRATFEQAIKQINQEEDH”, the “soluble fraction (log2)” value amounted to 0.00776. As to “HMPQTNIYPNPAFDKLFVSNLENETNFKIMDLFGRTIINSKTKGEISISELKSGIYIIEINNFRQKFVK”, the “soluble fraction (log2)” value is -0.863.

In the case of “HMPQVALAIDEMKRELASPDIVKTLLATTFKGLSEVNMRQAMLDGMIQGHTIADFFKKDVYAIPFGSGYSL”, the “soluble fraction (log2)” value was -0.0951.

As to “HMPRPFPELTTREHDILALIARGWSNGRIADHLSLSGKTVSNYVSNILGKLQVTARAEAAERAREAGMGQ”, the “soluble fraction (log2)” value is -0.401. As for “HMPRRSYLDARKKLLGMLNSPDFNSGDQIPAERELSEVLGISRVTVRKIITELIDEGVLERRGNQGTWLVD”, the “soluble fraction (log2)” value was -0.48. The same measure for “HMPRSREVHVEPGMVLEDVTTGFVGAVIRTEKSAGIYVIELEDRRGRRRSFPLGGGFWLDGRPIIALPPLP”: 0.281. For the sequence “HMPSLAVYPNPVKDILNIATDKPVHSIRIYNVYGSEVLRAADTNRIDVSHLPAGVYMVSADGKVTRIIK”, the “soluble fraction (log2)” value is 0.0765. For “HMPSLGGLLALLKRNRKPDAMEALDRLISKEDRPETAEALENIREKVRNMQMREAEGLLLALMEP”, the “soluble fraction (log2)” value is -0.281.

On to “HMPSLILADEPTGNLDSRNSSEVIALLKNASKRYAQTIIMITHNRSIAQSADRVLQVSDGVLTDMG”, for which the “soluble fraction (log2)” value was 0.0603. Take “HMPSLNDRPDDVLYLFSYFLQSFSHRQVSLPKILKKALIQHDWWGNIRELHSVALRYYIFGDTLNGAYDSL”: the “soluble fraction (log2)” value was -0.895.

“HMPSLSREREAAILEMIERRPSTAEDVASGLGLAVNEVIKLLDGTALRGSVETFQSGEEIYYTRKR”: the “soluble fraction (log2)” value is -0.294. For the sequence “HMPSNVKIPDVTGKTVAQARSAIEAAGLKVGKEKDEYSDSAKKDSVIRTNPQAGTQRREGSTVDLIVS”, the “soluble fraction (log2)” value amounted to 0.22. With “HMPSPFYIMDEVEAALDDTNLGRLITLFEELRDSSQLIVITHQKKTMEIADALYGVTMRGDGITTVVSQRL”, the “soluble fraction (log2)” value is -2.24.

With “HMPSQEQSDKNAAMAFLPVIVKNALNGKGLKISDDWKAAVNTALAQYPLVNKFFNADSPEVTELVMGL”, the “soluble fraction (log2)” value was 0.0187. As to “HMPSQLPLAFARRHGVLLRGFSNGLAQLTVRPEVSTLSLAETRRHLGVPLALEKVTTERFDQLLREAYEA”, the “soluble fraction (log2)” value was -0.152. “HMPSYYKELQNYSPENPVVKKRKVHPDVVNAIKYLAEITDGNPMLIKAYAQMILAHVFTTMPLIDKSV”: the “soluble fraction (log2)” value came out at 0.22.

Consider “HMPTEAIVLQQIQIRQSPSGNSKSLQQILPGAKIKITSESSVKGWKQVSLDGGQKGWIPTAAIGL”, for which the “soluble fraction (log2)” value came to 0.302.

With “HMPTELVYTVPASAEGLRLDHFLVQHVPHMTRALATELTGAGGVRVNGRRAKKGDRLPSGAEVRLER”, the “soluble fraction (log2)” value worked out at 0.286. With “HMPTFAEKLHEVRKARDFTQDQLAKEMNVSRQTISHWENGRAVPDIDTIKHLSQVLDYNFLV”, the “soluble fraction (log2)” value is -0.171.

On to “HMPTITIQRGIILSSTTKGFIDELSHSQIKNAIVERLGEHHVMIHESQLDAVIKYAQKKEAVINIYL”, for which the “soluble fraction (log2)” value was -0.0875. In the case of “HMPTMEQTYIGRTMIAEEDMGKNSKIKVSGIYWTAYNKGRVIKKGEEYKITGIEGNKLIVSSK” it was 0.179. As for “HMPTNSDRLIGSDGVVSSKIDNLQGTGKVYISGLTWSARTIDGSEAEEGDIVTVEKIEGATLYVTKR”, the “soluble fraction (log2)” value was -0.293.

Take “HMPTNVYSIIGKEGIVLESIDNLNSTGKVKVNGELWSAISDSNIEKGETIKVLSVNGVKLKVEKVN”: the “soluble fraction (log2)” value is -0.0569. On to “HMPTPASGSSGYINATNVNFRTGPATSYKSISKLAKNTAVTILGTSGNWYKVTVGSLGKNGYVFATYVTVS”, for which the “soluble fraction (log2)” value was -0.332. For the sequence “HMPTPLTPREHEIANLIAQGLSNREIADELVISPATAARHVANILAKLGFSSRTQVASWATRHD”, the “soluble fraction (log2)” value is -0.237.

“HMPTSLPGIDIDEKNIVSSTGALSFKKVPKKLAIIGGGYIGLEMGSVWSRLGSSVTVIEYLNFITPG”: the “soluble fraction (log2)” value was -0.172. In the case of “HMPTTLEGIEKYLSSGLIKGIGPHLAGKLVEAFGTRVFEVVEHQPERLRTVGGIGRTRAESITSAWRDQ” it was -0.141. With “HMPTTNIRAFRLREADPESVKEALSMVMPKTSIYVDARTKSVLVVGLLDELARAAEIVALIDQP”, the “soluble fraction (log2)” value is -1.13. In the case of “HMPVFSAEQVAKAEADVQKVANKVQEAGADVEKLTTIHNWLLAREKYMPPDLFSTANQIIATAFQKAG”, the “soluble fraction (log2)” value was 0.279. For “HMPVGSIGERLKALRLKAGLTQEEVGQHVHISKQTLYKYENGIVTNIPADKIELLATIYSVTPAYIMGWA”, the “soluble fraction (log2)” value is -0.118.

Consider “HMPVQPMDPSIEHISALTGKQFQAFPGQDHRAHMTAHLNFMSTNIVRNNPAVMGAIQKNILEHISLMAQEQ”, for which the “soluble fraction (log2)” value is -0.0918.

On to “HMPVSLHEQIQQARIRAEQNVEGISLLLQVNPKYYEQIEAGDVIPDQDLLKRISSLFGWNYHEMLHREKSS”, for which the “soluble fraction (log2)” value was -0.487.

As for “HMPVSTLLGDNLRRLRTAKGYTQEAVADAARISVAAYRNYETGRAIPKVNTLLAIARALGVSLNDLVTE”, the “soluble fraction (log2)” value is -0.00358.

For the sequence “HMPVTAQFDFSKVLAGRTLKDGEFSFVLKDKNGTVLQTKTNDASGKVAFDALIYKNNEVGEHKYTVEEVI”, the “soluble fraction (log2)” value is 0.294. In the case of “HMPVVKIPFILTEGPSSITKVIEIDADEILELKDVFQEDDKLWSINQIEMNDGRYVKHSDASLIVRASALR” it was -0.183; in that of “HMPYHSEAWHKVMKSHWLTLSREEAYMHEGRTGASTINIVFQRELGREATQEEIESIYQEKSVLFNSYP”, -1.37.

For the sequence “HMPYLVNGFILEVQSDDNNPVGTLKRRYAVAKNKQGVILLEGEKSFSSNDQILINELKFYIQSNDLKA”, the “soluble fraction (log2)” value is -1.39.

As to “HMPYSKIALQISHLLKSHGVPLSNKQIYEKLINDFQLSINYSNLTNNILPRMNSDSSINVEKVTRGYWQY”, the “soluble fraction (log2)” value was found to be 0.22. For “HMQADKYKSYTATDFLKDKDFLRWQLFNGEEDMLFWGRVIEEYPALRSRVEEGIVLYKDNIR”, the “soluble fraction (log2)” value was -1.18. On to “HMQADTATITGNGVNMRSGPGTNYQIIDTIPKGTVAEVLSQQDGWVKIYSARISGWVSASYVEIKQT”, for which the “soluble fraction (log2)” value was determined as 0.18. In the case of “HMQAGNAVEQYPTIGRLEEVTLGRSQPGAPIGERLSTLETVVFKRNFNDDSLFDRTERLKKTILGG” it was -0.0794; in that of “HMQAKQVAIPDVANYSVTDAIKKLQDAGFIVSDEQREEANETVSEGKVSRTSPAAGSIRKEGTEIILYKSL”, 0.279. In the case of “HMQALDETTVSRIRQKAAARNLLLKVLAGQLGVARPTLSNVLARREAPSAALAARIRAFLDSP” it was 0.159; in that of “HMQALTLVGQDAKDAKAALDAVDIQPAKTETDRYIYVLTEQQAQELGRTVDALYGVEGSLTLILEV”, -0.207. Turning to “HMQAQQYYMLLMNKATSALKIEALGANSNKAHQSFGTKTAGGSAVYWGILFNSNGKIYKIVG”, the “soluble fraction (log2)” value is -0.15.

Take “HMQASIPQSQKDALAKELQALPPHGRNRVLSTFRQQFNISSEKISEFITTPEHLSFIRSKIAEVESDS”: the “soluble fraction (log2)” value was -0.529.

Consider “HMQDENAVTYLLEIKNADANDIASVLKTLKSPDADVVVYKTLNMIIFTGQGSEINGLVKVARQLDRK”, for which the “soluble fraction (log2)” value is -1.3. Regarding “HMQDGVNLENIEQKLSTLGVGKAQYFLQNVGGNKFNAYMALNTDGVEGYQKGSDTLIEIKNVE”, the “soluble fraction (log2)” value turned out to be 0.0934. In the case of “HMQDKIWVVDETQLYPKLIEAMSEGKAVIHDGVAYWAEGSGKTGVIQHLPFKETTVQNVEEAIKLAQ”, the “soluble fraction (log2)” value is -0.543. The same measure for “HMQDKLLRKKEVLEMVSITNSTMYRMIGSGQFPRPIRLDNANINSGVRWKLSEINTFIEQRF”: -0.893; for “HMQDLAKRWVEEFGDLLYKYTLPRVSDSGIAKDLVQETFLAAWRNIDNFKGEASEKNWLFTILKNKIIDH”: -0.585; for “HMQDLTAQQQAILSFLKEHPKATRKEISENIPNITEDNIRYNLSQLQELGFVKSMGDSFIRIAI”: 0.216.

As for “HMQDNDLKNQIENVLRTYPDNVFTVEKIADVLRSHGSAAFKLIVQELASLERDKVAVVTEDGKFQLNPD”, the “soluble fraction (log2)” value was 0.339. “HMQDPTAVISRVLEERKHQPGALLPILHGIQDALGYVPREAVAQIAQALNLSRAEIHGVVSFYHHFR”: the “soluble fraction (log2)” value was -0.311. For “HMQDPVWVDWLGENDWFQKDPKRRGLANGYSEILRAEQPELVGRPFLDEVTRRVQADFPELFG”, the “soluble fraction (log2)” value is -1.33.

Consider “HMQDTRSHARKMLAAIEALLEGRSGSDIQAYTIHNRSITKMTVPELVKWRSYYQQQVRSEDAAASLA”, for which the “soluble fraction (log2)” value turned out to be 0.206. For “HMQDTYLYPVQHNGKVRLQVELPAKGLPEDLVRLALAHPKVVEWLNGRIPTKTIAVPGRIINMVLPNQ”, the “soluble fraction (log2)” value worked out at 0.18. Turning to “HMQDVWEPFLAKGYVFADGMLTKLIHKRGDVYKTQEIGSDKIIYVIKDGDTFAHGKTVKAAMLDLAFKKS”, the “soluble fraction (log2)” value was -0.392. With “HMQDYISAEEAKSAALSASQVDSAGAAFSAAELGEKNGIPYYEVAFTADGLEYRYAIDAQTGTVIESSSSG”, the “soluble fraction (log2)” value is -0.164. As for HMQEDKVRKLTEMGFAEDQAREALRKHDWDETMALNSL, the “soluble fraction (log2)” value is -0.244. On to “HMQEDSNISFVKIHVDADSGMAHKKLSKLSLPTGFLIVVIIRGEENIIPNGETEVLPGDLLVAAAREFEN”, for which the “soluble fraction (log2)” value was -0.811.

Consider “HMQEEELYPRLEEVINQHRGKGEDLIMVLHKAQNLFGYLPRRAQEMVAEGLNVSLNEVYGVITFYNFFST”, for which the “soluble fraction (log2)” value is -0.342.

As to “HMQEERDISFIKIHLEPGHPWRGRALRELMPLKDLLIVMVVRGEDTIVPNGDTRLEEGDLLVLAAYPFEE”, the “soluble fraction (log2)” value was -2.57.
